1 molecule from article PMC4357503 can be followed below.

The target of one data set is T1, GST-Puf4p (UniProt P25339 1-888).
T1 sequence: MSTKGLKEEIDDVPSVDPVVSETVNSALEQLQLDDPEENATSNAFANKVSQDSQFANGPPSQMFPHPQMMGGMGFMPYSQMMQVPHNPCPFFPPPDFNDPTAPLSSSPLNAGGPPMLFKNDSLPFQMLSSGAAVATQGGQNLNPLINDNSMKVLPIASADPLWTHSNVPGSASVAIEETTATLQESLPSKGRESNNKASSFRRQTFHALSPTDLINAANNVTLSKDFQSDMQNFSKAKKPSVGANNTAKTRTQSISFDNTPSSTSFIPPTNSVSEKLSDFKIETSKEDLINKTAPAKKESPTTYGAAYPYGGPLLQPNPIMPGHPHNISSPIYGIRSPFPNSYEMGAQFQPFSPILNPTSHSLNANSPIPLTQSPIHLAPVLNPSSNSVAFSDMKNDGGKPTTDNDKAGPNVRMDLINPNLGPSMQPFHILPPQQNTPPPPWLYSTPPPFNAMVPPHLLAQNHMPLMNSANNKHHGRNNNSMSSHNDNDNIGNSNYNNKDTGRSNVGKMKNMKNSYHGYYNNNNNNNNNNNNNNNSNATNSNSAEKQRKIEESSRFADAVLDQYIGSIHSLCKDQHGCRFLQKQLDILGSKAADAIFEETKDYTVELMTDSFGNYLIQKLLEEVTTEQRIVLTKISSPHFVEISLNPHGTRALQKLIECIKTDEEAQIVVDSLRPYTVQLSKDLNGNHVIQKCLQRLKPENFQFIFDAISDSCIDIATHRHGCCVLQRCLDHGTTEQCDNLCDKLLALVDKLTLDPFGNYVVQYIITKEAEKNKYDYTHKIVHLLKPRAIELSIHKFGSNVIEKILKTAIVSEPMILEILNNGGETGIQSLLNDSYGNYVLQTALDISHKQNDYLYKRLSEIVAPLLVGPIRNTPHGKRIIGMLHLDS
The data set is described as follows: EMSA. Background: A gel shift assay detects complexes by their altered migration in electrophoresis.

The next data set has as its target T2, GST-Puf1p (UniProt P47135 1-1091).
T2 sequence: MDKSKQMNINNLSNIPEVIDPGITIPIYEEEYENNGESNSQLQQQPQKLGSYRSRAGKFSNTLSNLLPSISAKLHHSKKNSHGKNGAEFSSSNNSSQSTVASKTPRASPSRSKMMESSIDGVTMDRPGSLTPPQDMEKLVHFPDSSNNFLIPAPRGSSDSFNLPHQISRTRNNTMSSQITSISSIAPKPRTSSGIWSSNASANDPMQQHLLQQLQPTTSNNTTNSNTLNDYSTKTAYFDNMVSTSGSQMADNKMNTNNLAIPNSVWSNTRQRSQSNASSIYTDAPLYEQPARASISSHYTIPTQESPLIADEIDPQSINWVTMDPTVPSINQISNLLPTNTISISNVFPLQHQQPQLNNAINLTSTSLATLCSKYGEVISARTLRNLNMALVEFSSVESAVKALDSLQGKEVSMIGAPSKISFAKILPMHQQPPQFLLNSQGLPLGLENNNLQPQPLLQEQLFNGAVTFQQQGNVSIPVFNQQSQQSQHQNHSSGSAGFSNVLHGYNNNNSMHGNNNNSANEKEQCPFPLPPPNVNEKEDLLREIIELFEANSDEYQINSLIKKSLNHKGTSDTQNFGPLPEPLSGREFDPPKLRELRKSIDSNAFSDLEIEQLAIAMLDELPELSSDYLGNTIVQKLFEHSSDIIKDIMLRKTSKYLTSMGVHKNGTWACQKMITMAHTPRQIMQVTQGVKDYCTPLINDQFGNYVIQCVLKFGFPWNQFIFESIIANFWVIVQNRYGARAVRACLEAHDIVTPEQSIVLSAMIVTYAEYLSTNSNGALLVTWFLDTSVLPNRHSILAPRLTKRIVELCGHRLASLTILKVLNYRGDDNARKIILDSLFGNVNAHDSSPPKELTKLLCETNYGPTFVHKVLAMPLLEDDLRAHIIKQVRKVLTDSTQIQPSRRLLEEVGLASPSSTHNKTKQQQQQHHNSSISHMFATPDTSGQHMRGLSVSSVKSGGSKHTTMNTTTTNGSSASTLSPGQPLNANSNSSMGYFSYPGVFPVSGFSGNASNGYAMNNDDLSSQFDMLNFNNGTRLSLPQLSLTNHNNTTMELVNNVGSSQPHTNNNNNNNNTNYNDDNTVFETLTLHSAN
Put plainly: EMSA.

B1: YHB1 WT PRE (oWO898) (ssRNA)
RNA: GUAAAGAUUGUGUAUGUAUUUAUAAGAUGAAUA
Regarding B1, the binding result with GST-Puf4p and in the data set with GST-Puf1p was “binds” throughout.
